Measured values as given in the supplement of paper PMC12042874.
± gives the uncertainty stated by the source.

Assay: amyloid nucleation score (Sup35N fusion, yeast selection) (log enrichment); library NNK2; higher = more nucleation; inactive = no reads after selection
How it was run: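 Yeast lacking psi expressed peptides of 20 random codons fused to Sup35N, received 100 μM copper sulfate for 24 hours, and were then grown for 7 days at 30°C on medium lacking adenine and uracil. Illumina sequencing of input and output plasmid inserts provided the reads. Nucleation scores are DiMSum log enrichments of output over input, centred on the mode of non-aggregating sequences. Any sequence with under 100 input reads was excluded.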

Row | Substance | amyloid nucleation score
1 | GYNQLLTQGKPGYCFRISRV | -1.29 ± 0.78
2 | GYRNPLLLILLDRVKFSCSR | -1.19 ± 1
3 | GYSAYESANWRLA | 1.19 ± 0.44
4 | GYSILKC | inactive
5 | GYTIDWMGVLQSVVLCT | 0.524 ± 0.6
6 | HADNARRYQTTLMVGLRVVG | 0.409 ± 0.49
7 | HAFLG | 0.53 ± 0.5
8 | HAMLRTDILICCITH | 9.805 ± 0.065
9 | HCCKSVRLESIRMRCGACYL | 0.007 ± 0.56
10 | HCMYDWMNRSMGLVFDCLFL | -1.04 ± 1
11 | HCPVSVVTRHGLTVNDVRHY | -0.062 ± 0.46
12 | HCRSIVWSRYFLMNPLN | -0.029 ± 0.61
13 | HCVLRSQT | 2.38 ± 0.12
14 | HCYQTDRSHIICHELLHCFV | -0.74 ± 0.49
15 | HEMRDGNSRLMFYWGVSCNM | 0.062 ± 0.45
16 | HERLKLAGSQSWVGKLVRQG | 0.917 ± 0.29
17 | HESKYNVQVFN | -0.276 ± 0.76
18 | HFIIYYDSYNTMVIGEFAVQ | inactive
19 | HFKSDSSSSEMTRLVEPGGV | -0.125 ± 0.63
20 | HFMRLYSKVLILLAEKRTAP | 0.083 ± 0.76
21 | HFNSLVSGQYMWSSGKSLVP | 4.01 ± 0.061
22 | HFNVPCNCSNCSYGTILSIT | -0.305 ± 0.8
23 | HFRSLALISLAEKFITRIEK | -0.13 ± 0.22
24 | HFSDVSSEVGVIHCSMLGSN | -0.107 ± 0.49
25 | HGGGVLHIFLNIAPLVS | 1.52 ± 0.28

Row | Substance | amyloid nucleation score
26 | HGLVGESVRSYQTQRQVTMA | 0.544 ± 0.4
27 | HGYRLSHSQPKSTSSLV | -0.083 ± 0.63
28 | HGYSWCCFHVGS | 8.926 ± 0.054
29 | HICPFGCGYYLGEDKDAWSG | -0.749 ± 0.56
30 | HIIPEYRVFLLLFHDDGAGF | inactive
31 | HIRGVIVGRAPDRCI | inactive
32 | HIRLRY | -0.101 ± 0.8
33 | HISVISTNEFTRIRASAAHA | 1.38 ± 0.67
34 | HIVRNYFTLTSCAHTIHFAD | -0.861 ± 1
35 | HKCTSAV | 0.229 ± 0.61
36 | HKIPLFYCSYTELGSSVERR | 1.38 ± 0.15
37 | HKLTRRKWNCLRNWKLNLHQ | -0.953 ± 0.54
38 | HKMADSTNDSNRLEFDMFNE | -0.881 ± 0.78
39 | HKQRSSASKSV | -0.321 ± 0.39
40 | HKWEAKMGPISVLFRCFGLD | 1.09 ± 0.14
41 | HLEPRIPLWMPVFGVSKVRS | 2.7 ± 0.12
42 | HLFCTMHSQTLEDYIKSLVC | -0.087 ± 1
43 | HLFNGSGGLFSLTRSFMKS | -0.228 ± 1.1
44 | HLGKASYREFSFFKGLGY | inactive
45 | HLHGCIAMCASSSLIAGCTE | -0.603 ± 0.78
46 | HLLYPSSMVDRALHGLDTRT | 5.358 ± 0.051
47 | HLMLFDMTASLLHSHNVSRP | 5.63 ± 0.058
48 | HLNFRSGILAISFIFDLSNH | inactive
49 | HLSYILGVGMFNVHHDNGFF | 2.5 ± 0.2
50 | HLVSSRGRMWPPFAPVGKQD | 0.492 ± 0.64

Row | Substance | amyloid nucleation score
51 | HMEAFWCWFYGNVAFNRFCV | -0.305 ± 1
52 | HNFVFLGKFAYTWKWMKMLS | inactive
53 | HNKVLGSSHHKLRQIPTCMC | 0.484 ± 0.8
54 | HNNFYPA | -0.552 ± 0.35
55 | HPDGYVHRVGSLN | -0.235 ± 1.1
56 | HPFMFKVCSTYFLNYLASCQ | 6.78 ± 0.074
57 | HPKAYARVTTK | -0.068 ± 0.36
58 | HPTSYVPSYLSFASKWLRVA | 0.571 ± 0.3
59 | HRHFCSLDGA | 0.076 ± 0.29
60 | HRLLVPDHTMYVSLKRKGLR | 0.092 ± 1.1
61 | HRPNCFRWPGLRVLFWYRK | -0.326 ± 0.45
62 | HSALWRLWEPAQP | 0.552 ± 0.64
63 | HSLKNYSGYLLLRTNRCI | 0.135 ± 0.65
64 | HSSSDVCT | 5.295 ± 0.049
65 | HSYFRFTPSFLAARSKYLRH | -0.498 ± 1.1
66 | HSYLKLVGLCKNSKRFNHNF | inactive
67 | HTHGGFSHRYGSRWGQYLSW | 5.53 ± 0.063
68 | HTTGFPFRGLGDIDSLAEQF | -0.217 ± 0.79
69 | HTYVRVYLRGELCHPNCMNA | 6.348 ± 0.032
70 | HVAQTS | 1.04 ± 0.4
71 | HVAWGHFLLIHIFHVNYGYL | -0.627 ± 1.1
72 | HVLNWTYSTRIDAGGKSIRM | -0.631 ± 0.76
73 | HVLYDCMGVIIKSCHYLDLC | -0.508 ± 0.37
74 | HVMNGCGLYGQGSSRYYQTV | 0.957 ± 0.26
75 | HVNRGYSLVTPRMEVDWQLS | 1.42 ± 0.15

Row | Substance | amyloid nucleation score
76 | HVVGVNLYRTLGRVFHLWDS | -0.084 ± 0.76
77 | HVWLIGFNLFLYFITLVVWV | -0.459 ± 1.1
78 | HYGTTFVISL | 3.85 ± 0.1
79 | HYGVNESLIKRYNWLRGVIW | 0.227 ± 1.1
80 | HYHTSISYR | 4.77 ± 0.1
81 | HYKTMFRFVCHFCENGGDGL | 10.18 ± 0.06
82 | HYMSAHGRRRLKPQVFYT | inactive
83 | HYSRD | -0.593 ± 1.1
84 | IACIEHWALGWLLCVSGVRV | 0.534 ± 0.5
85 | IAFKLRSTLSQPRNTCVLWH | 0.276 ± 1
86 | IAGYGVHTLVQCVV | 0.082 ± 1
87 | IAICVNARE | 0.838 ± 0.35
88 | IAKGPGALYRSKMRWSGFVL | -0.817 ± 1
89 | IALFVGFLVDAKDEGIL | -0.419 ± 0.26
90 | IARLASQSYLDMVADAEDTG | 0.472 ± 0.49
91 | IAVSMNEMGY | inactive
92 | ICCCFIWP | 7.044 ± 0.044
93 | ICGVKRKKNVILSYFISMEY | inactive
94 | ICGYEACNNIGP | -1.12 ± 0.62
95 | ICLDLCNMKLEKGLS | -1.55 ± 1
96 | ICLHHDYGSGWWIIQSAWQI | 2.95 ± 0.076
97 | ICNALCLYSVNLLPGTLMGI | 7.49 ± 0.027
98 | ICSYVTVCVRLGFCKLNAMM | 0.504 ± 0.51
99 | ICTFYDTGLWVIYSVTRKAR | -0.057 ± 0.65
100 | ICTGVSTHIEPRPLTELCFR | 2.6 ± 0.073

Row | Substance | amyloid nucleation score
101 | ICWPSTVDEGLPFYLWIYAM | 0.23 ± 0.39
102 | IDAELLGWFFPEDGFHFSAV | -1.32 ± 1.1
103 | IDGRDSFCQGGNRTCSKGCC | -0.303 ± 0.65
104 | IDLAFLLAVAVEPGWRTEV | -0.024 ± 1
105 | IDPKEMTGDRQWVSFTVRRR | 0.574 ± 0.24
106 | IDPLKGMLD | -2 ± 0.78
107 | IDYQKMLVSDCGD | 0.363 ± 0.46
108 | IELGFFSGTVIVVSYWEFTR | -1.02 ± 1
109 | IEMHDINYNP | -0.596 ± 0.29
110 | IESSEQSWT | -0.75 ± 0.36
111 | IETNTSGSPIVPKDDLYNSY | -0.672 ± 0.55
112 | IFAHSPLYMCGYADVYVHPT | inactive
113 | IFCLPIKKRVMYNHGLTIFG | 0.461 ± 0.29
114 | IFDCCY | -1.82 ± 1.1
115 | IFDYSV | -0.874 ± 0.55
116 | IFEVRLPQELSSYSHFGGGC | 0.706 ± 0.74
117 | IFHSESALWRHRYMGYVMVR | -0.66 ± 0.45
118 | IFMAKFSEIPTGPVIIMFYL | inactive
119 | IFMRVHLSMIVELKTHPDI | 3.2 ± 0.056
120 | IFSISNFAITVSNTLTV | 1.06 ± 0.32
121 | IFSLDFSGYVSLYLQKMNVL | 0.815 ± 0.15
122 | IFSTFCFLSAILFSIFPYEP | inactive
123 | IFSTGNVKGNLTR | -0.491 ± 0.22
124 | IFVCNMFVSYNSGNSGWCSV | 7.675 ± 0.042
125 | IFVVCLGMDTVYLIGYYSPA | -1.25 ± 0.78

Row | Substance | amyloid nucleation score
126 | IFVYY | -0.162 ± 0.4
127 | IGFYFLNRRKIFLASTGILM | inactive
128 | IGNDFNANM | -0.754 ± 0.76
129 | IGSEDPRHFRSVCWSYNDTL | -0.789 ± 0.61
130 | IGSWSTA | 0.367 ± 0.36
131 | IGTADDKVSNRQGEPTEMA | 0.681 ± 0.55
132 | IGTVAPVDLTAYSRERLFRM | inactive
133 | IGVRPCTMRC | 0.23 ± 0.29
134 | IGVSLTYKIQVSTRLFSTLY | 3.29 ± 0.15
135 | IGWGYRWVRWL | -0.415 ± 0.5
136 | IHIWGSLSIDIEFVCGRQAK | 1.99 ± 0.27
137 | IHNWIDSVERTALDMWERNA | 1.98 ± 0.14
138 | IIACLTVNYCTGRCATLMFP | 6.365 ± 0.036
139 | IIAEFDSGWSEAFDSCLGMS | -0.114 ± 0.54
140 | IIEIEGVCAFDWLRIFLILI | -1.27 ± 0.47
141 | IIFVFREYAINMKGVFK | 0.082 ± 1
142 | IIHDLSSFRKCSLHPDIGSS | -0.373 ± 0.37
143 | IIISYMFKHSWIKKGRHKLV | 0.597 ± 0.5
144 | IILFEYCEF | -0.613 ± 1.1
145 | IIQISSYSALWFRW | 0.724 ± 0.14
146 | IIQRRK | -0.157 ± 0.27
147 | IIVIRD | 0.005 ± 0.36
148 | IIVYVDDSPLYAVSRLQSYC | 0.758 ± 0.13
149 | IKFTLHCYDCVVFNC | 6.937 ± 0.056
150 | IKHVEDASGKRTDSRLFTRD | -0.545 ± 0.54

Row | Substance | amyloid nucleation score
151 | IKISYTLMASEAVNTFS | -1.22 ± 1.1
152 | IKKIRYPRFLVVLN | inactive
153 | IKLYCELCYFSNFWKIFTLR | inactive
154 | IKTVIRCLDLVSFHRYGIGV | -0.401 ± 0.31
155 | IKYFY | -0.939 ± 0.49
156 | IKYRFGGLGPRPPNGRRFE | 0.635 ± 0.65
157 | IKYSVVNRHRVGLSVTAKW | -0.205 ± 0.37
158 | IKYYVTVWSLESDTAWVGGL | 0.196 ± 0.45
159 | ILDFKWNYYG | 3.05 ± 0.11
160 | ILFCLF | 8.143 ± 0.033
161 | ILICKILKTRMKVSRDMVMK | inactive
162 | ILISLESSPISGMKCVLQRF | 2.85 ± 0.12
163 | ILKIAARIYLGLWTVFDWCG | 0.523 ± 0.27
164 | ILKRMLRCIYNFNISVWIIR | -0.578 ± 0.31
165 | ILKSKVSGPIYVSE | 0.848 ± 0.23
166 | ILLCCPVLFPINMKGSVCDK | 8.463 ± 0.044
167 | ILLVILLTRIVKRSFFYRGF | inactive
168 | ILLYRNAYWYPGKSSICLTS | -1.06 ± 0.49
169 | ILQGADLKLVYFVNHRMERV | 1.24 ± 0.21
170 | ILQWEVSWLCKNHT | 0.683 ± 0.35
